# Experimental data: a protein production outcome set (Wang et al. 2014)
# Test: label from the status in PepcDB records
row,Sequence,protein production
1,MEPQKESNQNYLPYPPHPQQDHDEIDLRELFKALWEGKWIVIATTFVIAVSAVLYALSLPNIYKADALLAPAESSNGGGLSKMAGQLGGLAALAGVNLGASESSQTDLAVQVMRSRQFINTFINKHDLLVPLMAGKDWDLSNNKLILDEELYNPNTGEWLRDAKGLRGATPTAQEAFEVFSKEVLSINQDKESGLYTVSMKNYSPYIAQQWVNWLIEDINKAMRERTIAETSQNLAYLNTQLQKTAVTDMQSTFYKLIEEQTKSLMLAEVQEEFVFKVVDPAVVPELKDSPKRVLICVLGILLGVMLGVAIVLIRIVFRKEDTENLEPRT,failed
2,MTLSSTTAPLDQPIPQATADAFCALTGDDQWIHIDPARAEAEGLAGGDTVLPGALLLSLAVGGLGKALGYPEGTRSWQRSYERVRFLRPAPVGSRLRLEARESRRRPAGTGREVVVANVSLYSDLVEAGPVMEGCFTSLLEVAVQPDTAE,failed
3,MIRLGLTSFSEHDYLTGKKRSTLYEYASHLPLVEMDTAYYGIPPKERVAEWVKAVPENFRFVMKVYSGISCQGEWQTYYASEEEMITAFLESMAPLIESKKLFAFLVQFSGTFGCTKENVAYLQKIRHWFKDLPIAIELRNNSWYQPNFVKQMLQFMKENQFSLVIVDEPQIPTNPVPFYPYVTNPNLVLFRFHGRNAAGWLANDAEWRKKRTLYHYNTQEIADLSEAVLKMSQEAKEVGVIFNNNSGGDAAENALQMQKVLNLSYDDLNPKQLDLF,not failed
4,MPLVNSHIVEECLPFTSLRLDPEDINLSMGAGYVPDAEIQAISDALETEIAGICTPRFLYALFDAEPAGTCEVGVNGISLKTGSVITPYLKDAAGYVLFVATAGYEFEAFQHRIGSQGDILREFLLDAYGSAIAEAVVREVCRKVESRMFPLGYGVSHPYSPGYCGWHVTQQQLLFSCLPEFPCGVRLSDSSLMSPIKSVSGIIAYGPCIVKRKYGCELCGKADCYKNRNKLNRLEHHHHHH,not failed
5,MAEKISVKTADTNADEIDLGRLLGTLLDNRWLIIGVTAIFLIFGILYATLATPIYKADALVQVEKNSSNKLINDITSMLPDAKPESAAEVELITSRMIIGKTVNDLALDINVQQNYFPFFGKGIARLTGATKGVLAVSRLEVPDSWKDEPIILTVTDNKNYSISAGDAVRFEGQVGRLERHDGMTLLISDIAADEGTTFSIKKLNQLTAINNILKTLTVADRGKDTGVLALSLEGEDPILTNKILNSISENYLQQNVERKSEESGRSLEFLKEQLPNVRSILDEADNKLNIFRQKNESVDLSLEAKSVLETMVALEAQLNELTFKEAEISKLYTKEHPAYRALLEKRKTLEEEKEKINKRVGAMPKTQQEIIRLTRDVKAGQEVYMQLLNKQQELSINKASTVGNVRIIDSAVVQLRPVKPEKVFIVLLSIILGGLLSVSFVLIRTILHKGIESPEQLAELGISVYASVPLSAWQQKKDRALLGKGKRGNTRSTELLAVGNPADLAIEAIRSLRTSLHFAMMEAKNNVLMISGASPAIGKTFVSANLGAVIAQSGQRVLIVDCDMRKGYAHELMGCQGTDGLSDILSGQITTDKSIRKTAVENMDFIPRGQIPPNPSELLMHSRFSQFIDWATKNYDIVLLDTPPILAVTDAAVISRHAGTSLLVARFEVNTLKEIEVSIRRFEQNGTEIKGVILNAIVKRAASYYSYGNYDYYSYEYKSDK,failed
6,MIDEPTGLYNRLRLQEDVSLRLQRDGALTVIAADLLPLALLNTIIRTLGYPFSNDLMLEARDRIRAELPDFTLYKISPTRFGLLLPRQQQEETESVCLRLLRAFESPVVCRGIPIKANVGLGVLPLADDTLDGDQDWLRLVVSAADDARDRGVGWARYNPPLDQAQQRLEHHHHHH,not failed
7,MERAAFGKLVQALRREHRDEKGRVWTQEVLAERTQLPKRTIERIENGSLAHLDADILLRLADALELTIGERREFFFAATGIIEQKSATYKRSPEESLQYLIDMIRNMNVPAFVTDQYVNIIAANMITIRFFNIPMELIETAPLLPHGYNLMRVVFGTEYDFRRVVGTMWDEVARHNMQLFRAISLRVRADGYFVELLDNLMQYREFKRFWERAHLETEDTSAENFWYQYTHPVYGLLSYVSSRSQIPTSMGLLSMHTYIPLSPATTDLFAKLSTVANQDVIRLAPWPRSNG,not failed
8,MKKLVHLSDFHYDGLRLSEEMLAEAIAVSNQVQPDLVLLTGDYVTTTPQPIHQLAKRLQKLQSHAGIYAILGNHDLYQKNSKTEITQALTKAGIQVLWNEIAYPLGEELPIVGIVDYYYREFNPQLLFNQLEPTTPRIVLCHNPDTAAMLQGWRVDLQLSGHTHGGLEHHHHHH,failed
9,MTNKGYFWVVASLVLASAAQVLMKSGMLALPSISMTHWPSLSTLMAGWPVVAVLVGIICYGLSMVCWFMVLRYLPLSRAYPLISLSYAVVYLAAVFLPWLNEPMSLRKNLGVLIILLGVWLVSRDAQATK,failed
10,MPDINESMLNQFRPVIRRFIDPIADRIALPADYITLTGFLVACAASAGYASGSLITGAALLAASGFIDVLDGAVARRRFRPTAFGGFLDSTLDRLSDGIIIIGITAGGFTGLLTGLLALHSGLMVSYVRARAESLGIECAVGIAERAERIIIILAGSLAGYLIHPWFMDAAIIVLAALGYFTMIQRMIYVWQRLK,failed
11,MNTTKRILILLLLALITGCAMHTTRNPSFLEGKRLIAEGRLEEGLGKLEQAAREEPDDREVGATLARERDTIIGQILFEADNARLAGNLDQAEQNYQRVLNIRASSERAREGLDAVDLERRHIVLVNQAKEALAHGDVDGAEKIVRGVLADNPMQSEARQLIKALSEQIARAEMSELSLITEFSKPITMEFRDTSLKTMFELISRTAGINFVFDRNVQQEATASIFVRDNSIEDVLKLMLLTNQLAYKVLNSNTLLIYPDTPAKQKDYQELVVRSFHVANTDVKQMVAMIRGLVKARDIYVNEKLNLFVIRDTLEMIRLVERLVAINDFPDPEVMLDVVVLEVKRDSTLDLGPNMPTSVTFSAVPGIGTPAQAAADSVVKMSMIKNTGFEGLRSFTISNQARIDFGRTLTNADVLANPRIRVKSREKAKIHIGNKEPVFTVTNTANVGSAASATYIDVGLKFEVEPVVRTNNEVTLKALLEVSSNLGEKRSGSGENAATAIVIGTRTAETVLELRDGETQVLAGLIQDDLSRVRSGIAGLTDIPVLGDIFSKQVRKHNKTEIILLITPHIVRNVIQPNHFESEFYSGTASAAGKLPVTIRKTAPRSLAMESSNSASDGGYMSLGRARSAGLFGAAPDLFEEAVTQAREASPSLTLRVPESVAGGREFTATVRLVTQDPMLSGELNLTYDPDTLELVDGGEKSGMRSLKLGRDQSTGMTAVLRFKVISTNATSTEIALQNLQVRDETGQPVEVNLPPAASIRIQ,failed
12,MTKTALVLGTVATLAVASVAAPAPAEARNGIGPFIGGLAAGALIAGVASNAYAYGPGYGYYGGGPYYGGGPYYGYAPRYVGYYGGPAYYGGGYGWGGPRYYRPRPVYYGYRSYYRPYRGGYYGAPVIRAGYGPGWGGHRHWHHHRHW,failed
13,MNPGGAEVSVVIPAWNAEATLGRALASVRAQTLAPRQVIVVNDGSSDATPEIAARMATKTFPVTVIDRTGRGSGPAAARNAGIAAAGEPFVAFLDADDVWLPDKLARQMAALRASPDAVLCCCDAQWVGEDAPARTAHPTIYEDRPIKGGAEAWKEILLDCYVGTPCVVARRAALIEAGGFDERLVVGEDQDLWIRLALQGPVIALPEVLVRYGLSADSHMARHRALAASLWLPHFEALVSGLGARLSAGERDAILRARLWRMARSVYLDGRKDLGLSLMARAVAHGLPRRARMVFLARARLRSALGRNGLEHHHHHH,failed
14,MKITFISGQEVSLGTSFLLFSKKIVMNELNQPLLAIIKNVAKTKNLSIEEVVFCLKTALEQAYKKHLNFVNVEVNINFDKGIINVEQLFNVVSDENEDYDDFLEIPLQAANKINSSLQLGDVLRKPIPLKNISSDLINKMIAIFNQKISETNFKAVMSEFSSEVGEVIEAKVEDIDTNKEGGLKGYIINLETTKGYISKRELSKGERLEIGKKYLFVIKEIQRQASLWPITLSRSDTRLLQFLLTSNTPEIENGTIVIKKIERSPGVKSKIAVISNDPAVDPVAAILGPKGEKIRGISEEFNGEIIDIVFWNEDKLKFLINAILPAEVIGYNILQDDERDTSIEVVVPANQIANVFGFKGVNIRLISNLTGWNSVDVYSEKDASEANIKFTRLSFEPEGLFGIKKRREKIISNDATDKVFYTSKDNVIDDEIIVDLAKDLMVDNKQKQPEQVAKQVVEKSQLEKQVTPKEKEKVQPKAKVHSNSHSKKPAKPNQIFSITVDASDKNLKKDQVDNNQTNPQTKQTFDSFDDL,failed
15,MEDLERRQRSQVKTHEVQAHGRISRLIPAEDFGIIETPEGREIYFHRHSVVNSDFDRLTVGTAVRFAEEMGEEGPQASSVRVEGKHHLIGLEHHHHHH,not failed
16,MRLYKIGLVLLLWVFAVTAQAELRFPALSGRVVDDAQMIEPTISALLTRQLQAHEQATGEQLVVVTLPDLQGASIEEFGYQLGRHWGIGQKDKNNGALLIVARDERKLRIEVGYGLEERLTDAQASVIINQVITPAFKTGQFSKGISDGVSAMLLVLGGTPLDEPTTVYDSGDSSSQDDFVQRHPLLFIFLVLLFILVIMVAQALGLITTTSGRGGGGGGGFGGFGGGSGGGGGFSGGGGSFGGGGSSGGWLEHHHHHH,failed
17,MAKDKRISLLKVTSMVIIINLLSKITGFIRDFITASKFGTSVSADAFSMSSVVPNIIFAILGAAIVNTFVPIFNDVIVNKGEKRAFKFSNNVITVLTLLSIILTLLGEIFCPQFVKLIAPDFHGYKYLLTIKLTRIFLLIIIVNTWVFLSTAILQAKEHFLIPSLIGIPYNLLVIVYLLFFSSKYGVLGLTEVIVFAMFVQFLIHVPSLARMKYRYKPEFNISDGYLKSMVVLLIPILLGTSVQQITSLFNGRFSSSLETGSVAALSYASRLNSLVMDIFVISIVTVIYPKMTKLSSENKIGELIESFNISIRSITIILFPIITIILIESVPIVKILFQRDAFGNKSTLMTSTALFYYIIGIIAAGLREVLCRMFYALKDTRTPMINSAITVLVNVVLAYYLKDVLRLGGIALASSIAAYVSSILLFIKLNSKLKNINYRKTIGVTIKVIFASIGMGIFLKVLYQIVGQALLKKAIIIEIIGFGGITLIALLIYMLILYLMKVEEINMVSAFLYKKIKRG,failed
18,MKVIMTTKVDKASMNIMNKLIENFGFKETEYVFDGNPVYKRGDVLILTTNDEMIYYDYLDREIENQLGFKPEIIAFASRHSSKQKLPALTTHVTGNWGKAMYGGKDESFAVAIPSAMKLSLLKMSELNDLGWTVCYEATHHGPTELEVPSFFIEIGSSEEEWINDRAGEIIAETIIYVLDNYEKGRSKFKVALGIGGGHYAPKQTKRALEGDLAFGHILPKYAQPVSRDVMIKALNRFGEKVEAIYVDWKGSRGETRQLAKSLAQELGLEFIKD,not failed
19,MKRFAFRVILHILLIVLFSIGSYLLFQKQLWFSTTICLILLITIGIHLYRMQFKQIALLRRLTDGLRYNDMMQTFHPPFNNKIMNEWAEELSDTLKDFRGRLLAEEIKHQYYENLLNKVDTAVLVADKAGHIEWMNQAAVTHLGQISQLPETLLKASVAHDTPVIRIEQNSTVLEMAISRTTFATQGREQQLISLKNIHSVLERNEMEAWQKLIRVLTHEIMNSITPIISLSETLSERGIPSQLGEKEYSVMLQAMQTIHRRSKGLLEFVENYRRLTRIPAPIRTQISIAELFTDLKKLFPEEEFQFEVPSPELKLNVDRTQIEQILINLLKNAREACSRKSDKKIQVKARKLSAGNTTLTISDNGEGILPDVLDKIFVPFFTTKTSGSGIGLSLCKQIMTLHEGSINVKSEVGKGSSFILTFPK,failed
20,MLRNNLGNSSDSKNEDGSVFSQTEHNIVATYLIMAGMISIISNIIVLGIFIKYKELRTPTNAIIINLAVTDIGVSSIGYPMSAASDLYGSWKFGYAGCQVYAGLNIFFGMASIGLLTVVAVDRYLTICLPDVGRRMTTNTYIGLILGAWINGLFWALMPIIGWASYAPDPTGATCTINWRKNDRSFVSYTMTVIAINFIVPLTVMFYCYYHVTLSIKHHTTSDCTESLNRDWSDQIDVTKMSVIMICMFLVAWSPYSIVCLWASFGDPKKIPPPMAIIAPLFAKSSTFYNPCIYVVANKKFRRAMLAMFKCQTHQTMPVTSILPMDVSQNPLASGRI,failed
